According to patent US20250368742A1 (D2M BIOTHERAPEUTICS, published 2025):

T1: MICB005-ECD-HISAvi (human, UniProt Q29980 24-309)
T1 construct: Two sources under one name in the two kinetic assays; also called MICB005 polypeptide
T1 sequence: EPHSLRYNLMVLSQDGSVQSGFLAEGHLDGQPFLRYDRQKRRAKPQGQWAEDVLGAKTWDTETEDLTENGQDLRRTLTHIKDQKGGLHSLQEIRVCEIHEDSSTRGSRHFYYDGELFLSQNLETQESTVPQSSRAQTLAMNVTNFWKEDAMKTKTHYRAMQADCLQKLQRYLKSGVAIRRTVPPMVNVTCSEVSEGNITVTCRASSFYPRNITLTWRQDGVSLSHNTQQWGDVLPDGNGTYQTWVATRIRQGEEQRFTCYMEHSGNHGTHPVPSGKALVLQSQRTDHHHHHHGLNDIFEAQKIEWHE

T2: human MICA002 on cells (human)
T2 chain: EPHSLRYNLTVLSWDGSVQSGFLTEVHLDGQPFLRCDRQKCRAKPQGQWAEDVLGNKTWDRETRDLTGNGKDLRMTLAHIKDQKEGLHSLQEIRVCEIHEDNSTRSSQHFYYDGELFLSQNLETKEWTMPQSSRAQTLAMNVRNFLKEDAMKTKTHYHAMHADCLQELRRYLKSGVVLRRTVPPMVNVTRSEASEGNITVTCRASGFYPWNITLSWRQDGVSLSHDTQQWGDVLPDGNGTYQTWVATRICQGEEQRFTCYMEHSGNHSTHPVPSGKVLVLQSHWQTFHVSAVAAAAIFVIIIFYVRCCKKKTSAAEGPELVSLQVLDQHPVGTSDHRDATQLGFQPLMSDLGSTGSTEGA

T3: MICA004-ECD-HISAvi (human)
T3 construct: also called MICA004 polypeptide
T3 chain: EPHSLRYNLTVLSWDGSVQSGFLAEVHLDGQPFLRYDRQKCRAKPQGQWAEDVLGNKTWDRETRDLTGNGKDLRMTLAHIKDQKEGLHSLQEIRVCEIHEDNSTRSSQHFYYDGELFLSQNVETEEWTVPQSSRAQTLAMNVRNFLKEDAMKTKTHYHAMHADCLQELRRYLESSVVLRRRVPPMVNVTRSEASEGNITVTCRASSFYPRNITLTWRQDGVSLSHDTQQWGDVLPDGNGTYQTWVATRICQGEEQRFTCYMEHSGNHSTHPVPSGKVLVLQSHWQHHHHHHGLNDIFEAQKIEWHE

T4: MICA008-ECD-HISAvi (human)
T4 construct: Two sources under one name in the two kinetic assays; also called MICA008 polypeptide
T4 chain: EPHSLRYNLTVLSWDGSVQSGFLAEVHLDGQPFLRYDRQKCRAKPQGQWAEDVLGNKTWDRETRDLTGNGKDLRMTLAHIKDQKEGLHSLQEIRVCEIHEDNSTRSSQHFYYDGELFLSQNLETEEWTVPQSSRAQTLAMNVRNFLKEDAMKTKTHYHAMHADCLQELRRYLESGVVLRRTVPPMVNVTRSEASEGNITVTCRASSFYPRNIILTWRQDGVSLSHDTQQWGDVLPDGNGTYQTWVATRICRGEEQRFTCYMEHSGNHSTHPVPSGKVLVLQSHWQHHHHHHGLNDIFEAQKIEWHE

T5: MICA002-ECD-HISAvi (human, UniProt Q29983 24-308)
T5 construct: also called MICA002 polypeptide
T5 chain: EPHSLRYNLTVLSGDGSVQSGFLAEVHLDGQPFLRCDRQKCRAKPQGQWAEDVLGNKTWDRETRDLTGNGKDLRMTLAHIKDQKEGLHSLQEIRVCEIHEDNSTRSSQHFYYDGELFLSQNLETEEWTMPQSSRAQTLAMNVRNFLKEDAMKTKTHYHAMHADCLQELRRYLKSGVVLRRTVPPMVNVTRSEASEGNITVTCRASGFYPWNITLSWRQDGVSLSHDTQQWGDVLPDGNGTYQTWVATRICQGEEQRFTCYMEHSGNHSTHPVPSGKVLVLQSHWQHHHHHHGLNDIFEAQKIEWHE


Legend:
MICB005-ECD-HISAvi [1] = molecular target: T1, MICB005-ECD-HISAvi; assay: SPR (Carterra); antibody captured by anti-human Fc, monomeric ECD antigen injected;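 further: dissociation phase followed for about 10 min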
Method: (§1) The dissociation kinetics were monitored for approximately 10 minutes. The chip surface was regenerated between binding cycles with 10 mM glycine HCl, pH 1.7. Binding kinetics were analyzed using software supplied by the manufacturer.

human MICA004 on cells = molecular target: T6, human MICA004 on cells (human); assay: flow cytometry, CHO-MICA004 cells
T6 construct: whole, on cells; also called CHO-MICA004; C1R-MICA004
Method: (§2) IgG1 is an isotype control (IgG). The antibody binding signals of APC (gMFI) to MICA/B were measured by flow cytometry.
(§3) After an incubation time of 30 minutes, the plate was centrifuged and cells were washed with PBS three times. […] After mixing for 30 minutes at room temperature, cells were washed with PBS twice. Fluorescent signal was detected and quantified by flow cytometry (Attune™ CytPix™, ThermoFisher) within the population of live cells (viability dye PI negative).

human MICA008 on cells [2] = molecular target: T7, human MICA008 on cells (human); assay: flow cytometry, CHO-MICA008 cells
T7 construct: whole, on cells; also called CHO-MICA008; C1R-MICA008

human MICA008 on cells [3] = molecular target: T7, human MICA008 on cells; assay: flow cytometry, HeLa cells (MICA008)
Method: as §2, §3

human MICB005 on cells = molecular target: T8, human MICB005 on cells (human); assay: flow cytometry, CHO-MICB005 cells
T8 construct: whole, on cells; also called CHO-MICB005; C1R-MICB005
Method: as §2, §3

MICA009Avi = molecular target: T9, MICA009Avi (human); assay: BLI (GatorPrime); antibody on anti-hIgG Fc probe, monomeric antigen in solution;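 further: binding kinetics of anti-MICA/B antibodies measured by biolayer interferometry, with dissociation followed for about 10 min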
T9 construct: extracellular domain
Method: (§4) The binding kinetics of the antibodies were also measured using the GatorPrime BLI (Biolayer Interferometry) system (Gator Bio, USA). Specifically, the anti-MICA/B antibodies were loaded with HFC (Anti-hIgG Fc, Gator Bio, Cat #: 160003). […] The dissociation kinetics were monitored for approximately 10 minutes. The probes were regenerated between binding cycles with Regeneration Buffer (Gator Bio, Cat #: 120012). Binding kinetics were analyzed using software supplied by the manufacturer.

MICB005-ECD-HISAvi [4] = molecular target: T1, MICB005-ECD-HISAvi; assay: as above
Method: as §4

human MICA002 on cells = molecular target: T2, human MICA002 on cells; assay: flow cytometry, CHO-MICA002 cells
Method: CHO-MICA002 cells were incubated with titrated anti-MICA/B antibodies and then APC-labeled anti-human Fc antibody. […] The antibody binding signals of APC (gMFI) to MICA/B were measured by flow cytometry.
as §3

MICA004-ECD-HISAvi [5] = molecular target: T3, MICA004-ECD-HISAvi; assay: SPR (Carterra); antibody captured by anti-human Fc, monomeric ECD antigen injected;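 further: dissociation phase followed for about 10 min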
Method: as §1

MICA008-ECD-HISAvi [6] = molecular target: T4, MICA008-ECD-HISAvi; assay: as above
Method: as §1

MICA002-ECD-HISAvi = molecular target: T5, MICA002-ECD-HISAvi; assay: as above
Method: as §1

MICA004-ECD-HISAvi [7] = molecular target: T3, MICA004-ECD-HISAvi; assay: BLI (GatorPrime); antibody on anti-hIgG Fc probe, monomeric antigen in solution;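 further: binding kinetics of anti-MICA/B antibodies measured by biolayer interferometry, with dissociation followed for about 10 min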
Method: as §4

MICA008-ECD-HISAvi [8] = molecular target: T4, MICA008-ECD-HISAvi; assay: as above
Method: as §4

Kd (MICB005-ECD-HISAvi [1]) [nM]	EC50 (human MICA004 on cells) [mg/L]	EC50 (human MICA008 on cells [2]) [mg/L]	EC50 (human MICA008 on cells [3]) [mg/L]	EC50 (human MICB005 on cells) [mg/L]	Kd (MICA009Avi) [nM]	Kd (MICB005-ECD-HISAvi [4]) [nM]	EC50 (human MICA002 on cells) [mg/L]	Kd (MICA004-ECD-HISAvi [5]) [nM]	Kd (MICA008-ECD-HISAvi [6]) [nM]	binding result (MICA002-ECD-HISAvi)	Kd (MICA004-ECD-HISAvi [7]) [nM]	Kd (MICA008-ECD-HISAvi [8]) [nM]	Kd (MICA002-ECD-HISAvi) [nM]	Binder
8.62	0.239	0.15	0.269	0.184	3.94	4.54	0.882	–	–	–	–	–	–	6E1.1.12 (antibody, human IgG1, kappa, V domains shown) VH: QGQMQQSGAELVKPGASVKLSCKTSGFTFSDNYISWLKQKPGQSLEWIAWIYAGTGGSSYNQKFRDKAQLTVDTSSRTAYMQLSSLTTEDSAIYYCARHDYYGTSGAWFAYWGRGTLVTVSA VL: DVLMTQTPLSLPVSLGDQASISCRSSQHIVHSNENTYLEWYLQKPGQSPKLLIYKVSNRFSGVPDRFSGSGSGTDFTLKISRVEAEDLGVYYCFQGSHVPWTFGGGTKVEIKR
2.27	–	–	–	–	0.716	1.35	–	6.92	0.846	no binding	1.16	0.625	–	B10G5 (antibody, human IgG1, kappa, V domains shown, also called B10G5-2; P2B10G5) VH: EVQLEESGPGLVKPSQSLSLTCTVTGYSITSDYAWNWIRQFPGNKLEWMGYISYSGSTNYNPSLKSRISITRDTSKNQFFLQLNSVITEDTATYYCARGGTYFDYWGQGTTLTVSS VL: DIVLTQTTSYLSVSLGGRVTIACKASAHINNWLAWYQQKPGNAPRLLISDATSLETGVPSRFSGSGSGKDYTLSITSLQTEDVATYYCQHYWSTPWTFGGGTKLEIKR
15	0.221	0.051	0.183	0.21	–	–	0.232	25.3	14.4	–	–	–	13.2	#31 (antibody, human IgG1, V domains shown, also called PL116D11; Hit ID 31) VH: EVQLQQSGPELVKPGASVKVSCKASGYAFTKYNIYWVKQSHGKSLEWIGYIDPYNGGTVQNQKFKGKATLTVDKSSSTAYMHLNSLTSEDSAVYYCATTDGYSLFTYWGQGTLVTVSS VL: DIQMTQTTSSLSASLGDRVTISCRASQDIGNYLNWYQQKPDGTVKLLIYYTSRLHSGVPSRFSGSGSGTDYSLTISNLEQEDIATYFCQQGNTLPFTFGSGTKLEIK
23.1	0.248	0.063	0.189	0.249	–	–	0.2	40.1	21.2	–	–	–	20.7	#36 (antibody, human IgG1, V domains shown, also called PL116H11; Hit ID 36) VH: QVQLQQSGPELVKPGASVKVSCKASGYAFTKYNIYWVKQSHGKSLEWIGYIDPYNGGTVYNQKFKGKATLTVDKSSSTAYMHLNSLTSEDSAVYYCATTDGYSLFTYWGQGTLVTVSA VL: DIQMTQTTSSLSASLGDRVTISCRASQDISNYLNWYQQKPDGTVKLLIYYTSRLHSGVPSRFSGSGSGTDYSLTISNLEQEDIATYFCQQGNTLPFTFGSGTKLEIK
